US20250304636A1 (H LEE MOFFITT CANCER CENTER AND RESEARCH INSTITUTE, published 2025)

Molecular target: T1, Syk (UniProt P43405 1-635, limits assumed)
T1 construct: also called Syk kinase; pcDNA3-Syk
Test: co-immunoprecipitation from co-transfected AD293 cells
Experimental: AD293 cells (a cell line derived from HEK293 with improved cell adherence and plaque formation, Agilent) were washed with Dulbecco's PBS (DPBS), and resuspended in 2.0 μg/ml of anti-human TREM-1 antibody (R&D Systems) on ice for 30 min. After washing with DPBS, cells were incubated with 1.0 μg/ml of Affinipure rabbit anti-mouse IgG (H+L) Ab (Jackson Immunoresearch) at 37° C. for 10 min. Cells were then scraped off the plates and followed by centrifugation at 400 g for 10 minutes at 4° C. Cells were washed twice with cold 1×DPBS and lysed on ice for 30 min at 4° C. in 1 ml of lysis buffer (1% NP-40, 10 mM Tris, 150 mM NaCl, 0.5 mM phenylmethylsulfonyl fluoride, 10 mM iodoacetamide, 50 mM NaF, 1 mM ethylenediamenetetraacetic acid, 1 mM sodium orthovanadate, 0.25% sodium Deoxycholate, 10 μl Ala-Ala-Phe p-nitroanilide (SIGMA), 10 μl protease cocktail I (SIGMA cat #P2850) and 10 μl protease cocktail II (SIGMA cat #P5726). Cell lysates were centrifuged at 12,000 g at 4° C. for 15 minutes to remove nuclei and cell debris, after which the clarified lysate supernatant was isolated. The protein concentration of the soluble extracts was determined using the Bradford protein assay (Bio-Rad, Hercules, CA, USA) following manufacturer protocol. Western blots were blocked in PBST containing 4% BSA for 1 h and then incubated overnight at 4° C. in primary antibodies. […]

B1: wild-type DAP12 (12-kilodalton DNAX activating protein) (other)
chain: IALAVYFLGRLVPRGRGAAEAATRKQRITETESPYQELQGQRSDVYSDLNTQRPYYK
notes: Over-expressed from pcDNA3 in AD293 cells together with pcDNA3-Syk; co-immunoprecipitated from cell lysates; No signal peptide limits are stated; also called WT DAP12; WT
B1: no binding.
